In patent publication US20170240883A1, “CYCLIC PEPTIDES EXPRESSED BY A GENETIC PACKAGE” (Miti Biosystems GmbH, priority 2014, published 2017):

T1: substrate peptide NH2-KPTTVKPPSDFEEWTINVC-COOH
T1 chain: KPTTVKPPSDFEEWTINVC


Columns and labels:
Human Plasma Kallikrein = target: T2, Human Plasma Kallikrein (Homo sapiens, UniProt P03952); test: Phage selection of ProcM-modified SynLib1 library on biotinylated kallikrein (output titre); format: binding; settings: 24 clones from R3 6.25 nM kallikrein output
T2 construct: purchased Molecular Innovations, Inc, USA
T2 sequence (P03952 20-638): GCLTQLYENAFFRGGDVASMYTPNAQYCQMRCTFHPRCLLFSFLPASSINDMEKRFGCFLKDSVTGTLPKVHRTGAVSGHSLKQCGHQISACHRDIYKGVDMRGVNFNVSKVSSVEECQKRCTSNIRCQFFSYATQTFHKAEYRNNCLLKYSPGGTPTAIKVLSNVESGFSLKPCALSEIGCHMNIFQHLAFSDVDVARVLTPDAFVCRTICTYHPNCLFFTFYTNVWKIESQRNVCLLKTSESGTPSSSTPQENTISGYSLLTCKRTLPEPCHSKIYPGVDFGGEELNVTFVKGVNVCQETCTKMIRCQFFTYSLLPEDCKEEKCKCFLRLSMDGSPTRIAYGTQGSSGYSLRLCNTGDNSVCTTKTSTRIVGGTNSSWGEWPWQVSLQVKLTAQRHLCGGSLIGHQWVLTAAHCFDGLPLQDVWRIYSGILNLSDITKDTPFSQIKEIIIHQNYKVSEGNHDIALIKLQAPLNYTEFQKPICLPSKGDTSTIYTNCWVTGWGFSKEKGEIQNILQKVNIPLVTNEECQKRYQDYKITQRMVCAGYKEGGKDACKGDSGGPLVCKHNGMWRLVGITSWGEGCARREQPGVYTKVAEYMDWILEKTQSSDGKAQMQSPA
Procedure: Human Plasma Kallikrein (Molecular Innovations, Inc, USA) at 1.15 mg/ml (13 μM) solution in 4 mM acetate, 150 mM NaCl, pH 5.3 was biotinylated using NHS-PEG4-Biotin from the EZ-link micro-PEO4-biotinylation kit (Pierce Biotechnology, USA). 680 μl of water was added to the contents of the pre-weighed vial of biotinylation reagent to make a 5 mM solution. 1 μl of this solution was added to 100 μl of the kallikrein solution. This was incubated at RT for 1 hour prior to the separation of the biotinylated protein from the unreacted biotin, using a 2 ml Spin Desalting column (Pierce Biotechnology, USA). The volume of the kallikrein was made up to 350 μl with PBS (Formedium Ltd, UK) and was loaded onto the spin column which had been equilibrated with PBS (as per the manufacturer's instructions). When this solution had been absorbed into the column matrix, a further 50 μl of PBS was added on top and the column was spun in a centrifuge at 1000 g for 2 min. 395 μl of solution was collected, making the concentration of the biotinylated kallikrein about 3.25 μM.
150 μl of stock SynLib1 library (2.5e11 phage per μl) was added to 1850 μl of TE buffer, 2 μl 1 M TCEP (Melford Biolaboratories Ltd, UK) and incubated at RT for 20 minutes to reduce the peptides on the phage. […]

[1] = target: T1, substrate peptide …

Molecule | share of the clones that were sequenced (Human Plasma Kallikrein) | dehydration of the peptide, LC-ESI mass spectrometry [1]
AACKGPSPTPNNC [clone 24] | 12.5% | 
Celf5ProcM (ProcM - 5-residue linker - C-terminal ProcA4.3 leader enzyme-leader fusion) (protein) MSEEQLKAFIAKVQADTSLQEQLKAEGADVVAIAKAAGFTITTEDLNSHRQNLTDDELEGVAGGSASGSGSGSAMESPSSWKTSWLAAIAPDEPHKFDRRLEWDELSEENFFAALNSEPASLEEDDPCFEEALQDALEALKAAWDLPLLPVDNNLNRPFVDVWWPIRCHSAESLRQSFVSDSAGLADEIFDQLADSLLDRLCALGDQVLWEAFNKERTPGTMLLAHLGAAGDGSGPPVREHYERFIQSHRRNGLAPLLKEFPVLGRLIGTVLSLWFQGSVEMLQRICADRTVLQQCFAIPCGHHLKTVKQGLSDPHRGGRAVAVLEFADPNSTANSSMHVVYKPKDMAVDAAYQATLADLNTHSDLSPLRTLAIHNGNGYGYMEHVVHHLCANDKELTNFYFNAGRLTALLHLLGCTDCHHENLIACGDQLLLIDTETLLEADLPDHISDASSTTAQPKPSSLQKQFQRSVLRSGLLPQWMFLGESKLAIDISALGMSPPNKPERIALGWLGFNSDGMMPGRVSQPVEIPTSLPVGIGEVNPFDRFLEDFCDGFSMQSEALIKLRNRWLDVNGVLAHFAGLPRRIVLRATRVYFTIQRQQLEPTALRSPLAQALKLEQLTRSFLLAESKPLHWPIFAAEVKQMQHLDIPFFTHLIDADALQLGGLEQELPGFIQTSGLAAAYERLRNLDTDEIAFQLRLIRGAVEARELHTTPESSPTLPPPATPEALMSSSAETSLEAAKRIAHRLLELAIRDSQGQVEWLGMDLGADGESFSFGPVGLSLYGGSIGIAHLLQRLQAQQVSLMDADAIQTAILQPLVGLVDQPSDDGRRRWWRDQPLGLSGCGGTLLALTLQGEQAMANSLLAAALPRFIEADQQLDLIGGCAGLIGSLVQLGTESALQLALRAGDHLIAQQNEEGAWSSSSSQPGLLGFSHGTAGYAAALAHLHAFSADERYRTAAAAALAYERARFNKDAGNWPDYRSIGRDSDSDEPSFMASWCHGAPGIALGRACLWGTALWDEECTKEIGIGLQTTAAVSSVSTDHLCCGSLGLMVLLEMLSAGPWPIDNQLRSHCQDVAFQYRLQALQRCSAEPIKLRCFGTKEGLLVLPGFFTGLSGMGLALLEDDPSRAVVSQLISAGLWPTESASGSGSGSAMSEEQLKAFIAKVQADTSLQEQLKAEGADVVAIAKAAGFTITTEDLNSHRQNLTDDELEGVAGG |  | one portion of the used peptide P2 was found showing triple dehydration with a m/z value of 1069.022
NelfMvdDGS10 (N-terminal MvdE leader - 10-residue linker - MvdD enzyme-leader fusion) (protein) MSKNVKVSAPKAVPFFARFLAEQAVEANNSNSAPSASGSGSGSGSTSGSGSGSAMTVLIFTFSNDNESIPLVVKAIEAKGEKAFRFDTDRFPTEVKLDIYSGDFEGGIVTDGEHKLDLSEVSSVWYRRMRYGAKLPDSMDQQFREASLKECRLTVRGLIASLPGFHFDPMINVDRANNKQLQLQIARQLGLLTPRTLTSNNPEAVKQFAQDCKEQGIVTKMLSQFAIYGENKEENVVFTSPVTDDDLDNLEGLSFCPMTFQENVPKALELRTIIVGKQVFTAAINSQQLDGATYDWRKEGRALHEKWQAYNLPEDIEKKLLQLTAYFGLNYGAIDIIVTPDGRHVFLEINPVGEFFWLELFAPYFPISQAIAEILLTPTNQKPF |  | one portion of the used peptide P2 was found showing triple dehydration with a m/z value of 1069.022
